According to FireProtDB (doi:10.1110/ps.062595707):
Values joined by “and” are separate entries in the source; they are usually repeats but may differ in a detail not shown here. Equal entries are not always repeated.

B1: Ribose import binding protein RbsB, P02925 (parent)
chain: MNMKKLATLVSAVALSATVSANAMAKDTIALVVSTLNNPFFVSLKDGAQKEADKLGYNLVVLDSQNNPAKELANVQDLTVRGTKILLINPTDSDAVGNAVKMANQANIPVITLDRQATKGEVVSHIASDNVLGGKIAGDYIAKKAGEGAKVIELQGIAGTSAARERGEGFQQAVAAHKFNVLASQPADFDRIKGLNVMQNLLTAHPDVQAVFAQNDEMALGALRALQTAGKSDVMVVGFDGTPDGEKAVNDGKLAATIAQLPDQIGAKGVETADKVLKGEKVQAKYPVDLKLVVKQ

Variants of: B1
Conditions: Escherichia coli (strain K12); pH 7; Thermal; CD; Phosphate 5 mM; structure 2DRI; whole UniProt chain shown

Question: For N89A, which Tm is on record?
Answer: Its Tm is 52.9 °C.

Question: And the “change of melting temperature, mutant - wild type (higher = more stable)” value (from here on “change of melting temperature, mutant”)?
Answer: The value was -4.6 °C.

Question: For S34A I157A, which “change of melting temperature, mutant” value is on record?
Answer: Its value is -0.7 °C and 2.4 °C.

Question: Which Tm does the source give for S34A I157A S128A N38A Q260A here?
Answer: Its Tm is 59 °C.

Question: What about the “change of melting temperature, mutant” value of the same variant?
Answer: The value was -4.7 °C.

Question: Which Tm does the source give for D114A here?
Answer: The Tm was 58.2 °C and 57.2 °C.

Question: For D240A, which Tm is on record?
Answer: The Tm was 51.2 °C and 51.3 °C.

Question: For Q260A, which Tm is on record?
Answer: The Tm was 58.2 °C and 58.9 °C.

Question: For S34A, which “change of melting temperature, mutant” value is on record?
Answer: The value was -1.5 °C and 0.1 °C.

Question: Which Tm does the source give for F40A here?
Answer: Its Tm is 52.5 °C and 54.2 °C.

Question: And the “change of melting temperature, mutant” value?
Answer: Its value is -5 °C and -9.5 °C.

Question: With F239A as the variant, how does the Tm read?
Answer: Its Tm is 48 °C and 46 °C.

Question: Which Tm does the source give for N38A here?
Answer: The Tm was 58.2 °C and 60.1 °C.

Question: What about the “change of melting temperature, mutant” value of the same variant?
Answer: The value was 0.7 °C and -3.6 °C.

Question: For S34A I157A S128A N38A, which Tm is on record?
Answer: The Tm was 54.7 °C.

Question: What about the “change of melting temperature, mutant” value of the same variant?
Answer: The value was -9 °C.

Question: For N215A, which Tm is on record?
Answer: Its Tm is 49.4 °C and 51.5 °C.

Question: What about the “change of melting temperature, mutant” value of the same variant?
Answer: The value was -8.1 °C and -12.2 °C.

Question: Which Tm does the source give for S34A I157A S128A here?
Answer: The Tm was 53.4 °C and 53.7 °C.

Question: For F189A, which Tm is on record?
Answer: The Tm was 51.7 °C and 53.3 °C.

Question: And the “change of melting temperature, mutant” value?
Answer: Its value is -5.8 °C and -10.4 °C.

Question: For I157A, which Tm is on record?
Answer: Its Tm is 57.3 °C and 61.2 °C.

Question: And the “change of melting temperature, mutant” value?
Answer: The value was -0.2 °C and -2.5 °C.

Question: With F41A as the variant, how does the Tm read?
Answer: Its Tm is 58.9 °C and 57.4 °C.

Question: For S128A, which Tm is on record?
Answer: Its Tm is 57.8 °C and 60.7 °C.

Question: What about the “change of melting temperature, mutant” value of the same variant?
Answer: Its value is 0.3 °C and -3 °C.
